# Measurements as given in IntAct's records for PubMed 23736261.
# B1: Catenin beta-1 (Homo sapiens), P35222 (parent)
# chain: MATQADLMELDMAMEPDRKAAVSHWQQQSYLDSGIHSGATTTAPSLSGKGNPEEEDVDTSQVLYEWEQGFSQSFTQEQVADIDGQYAMTRAQRVRAAMFPETLDEGMQIPSTQFDAAHPTNVQRLAEPSQMLKHAVVNLINYQDDAELATRAIPELTKLLNDEDQVVVNKAAVMVHQLSKKEASRHAIMRSPQMVSAIVRTMQNTNDVETARCTAGTLHNLSHHREGLLAIFKSGGIPALVKMLGSPVDSVLFYAITTLHNLLLHQEGAKMAVRLAGGLQKMVALLNKTNVKFLAITTDCLQILAYGNQESKLIILASGGPQALVNIMRTYTYEKLLWTTSRVLKVLSVCSSNKPAIVEAGGMQALGLHLTDPSQRLVQNCLWTLRNLSDAATKQEGMEGLLGTLVQLLGSDDINVVTCAAGILSNLTCNNYKNKMMVCQVGGIEALVRTVLRAGDREDITEPAICALRHLTSRHQEAEMAQNAVRLHYGLPVVVKLLHPPSHWPLIKATVGLIRNLALCPANHAPLREQGAIPRLVQLLVRAHQDTQRRTSMGGTQQQFVEGVRMEEIVEGCTGALHILARDVHNRIVIRGLNTIPLFVQLLYSPIENIQRVAAGVLCELAQDKEAAEAIEAEGATAPLTELLHSRNEGVATYAAAVLFRMSEDKPQDYKKRLSVELTSSLFRTEPMAWNETADLGLDIGAQGEPLGYRQDDPSYRSFHSGGYGQDALGMDPMMEHEMGGHHPGADYPVDGLPDLGHAQDLMDGLPPGDSNQLAWFDTDL
# Variants of: B1
# Details: with mlp3b_human MAP1LC3B
row,Variant,effect of a mutation on the interaction
1,W504A;I507A,disrupting interaction

# Variants of: B1
# Details: with mlp3b_human MAP1LC3B
# Remark: another data set of the same source
row,Variant,effect of a mutation on the interaction
1,W504A;I507A,decreasing interaction
